B1: ARL6IP1 (parent)
chain: YLDPSVLSGVSCFVMFLCLADYLV
B2: DLC1 (parent)
chain: KRSWEEHVTHWMGQPFNSDDRNTA

Variants of: B1
Experiment: protein stability index of a GFP-peptide fusion (GPS, HEK-293T) (PSI 1-6); higher = more stable
Conditions: c terminus: a fixed tail appended
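Note: lentivirally expressed fusions sorted by FACS into six bins by GFP to DsRed ratio, PSI derived from sequencing read proportions per bin multiplied by bin number.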

| Variant | protein stability index |
| --- | --- |
| YLDPSVHSGVSCFVMFLCLADYLV [L7H] | 3.82 |
| YLDPSVNSGVSCFVMFLCLADYLV [L7N] | 2.74 |
| YLDPSVSSGVSCFVMFLCLADYLV [L7S] | 3.62 |
| YLDPSVVSGVSCFVMFLCLADYLV [L7V] | 3.69 |
| YLDPSVYSGVSCFVMFLCLADYLV [L7Y] | 2.89 |
| YLDPSVPSGVSCFVMFLCLADYLV [L7P] | 2.4 |
| YLDPSVTSGVSCFVMFLCLADYLV [L7T] | 2.8 |
| YLDPSVASGVSCFVMFLCLADYLV [L7A] | 3.11 |
| YLDPSVMSGVSCFVMFLCLADYLV [L7M] | 2.98 |
| YLDPSVQSGVSCFVMFLCLADYLV [L7Q] | 4 |
| YLDPSVCSGVSCFVMFLCLADYLV [L7C] | 1.88 |
| ALDPSVLSGVSCFVMFLCLADYLV [Y1A] | 1.59 |
| HLDPSVLSGVSCFVMFLCLADYLV [Y1H] | 3.89 |
| NLDPSVLSGVSCFVMFLCLADYLV [Y1N] | 4.11 |
| CLDPSVLSGVSCFVMFLCLADYLV [Y1C] | 3.1 |
| MLDPSVLSGVSCFVMFLCLADYLV [Y1M] | 3.37 |
| ILDPSVLSGVSCFVMFLCLADYLV [Y1I] | 2.63 |
| DLDPSVLSGVSCFVMFLCLADYLV [Y1D] | 2.61 |
| RLDPSVLSGVSCFVMFLCLADYLV [Y1R] | 2.81 |
| VLDPSVLSGVSCFVMFLCLADYLV [Y1V] | 2.9 |
| YLDPSVLFGVSCFVMFLCLADYLV [S8F] | 3.22 |
| YLDPSVLCGVSCFVMFLCLADYLV [S8C] | 3.59 |
| YLDPSQLSGVSCFVMFLCLADYLV [V6Q] | 2.64 |
| YLDPSSLSGVSCFVMFLCLADYLV [V6S] | 2.79 |
| YLDPSTLSGVSCFVMFLCLADYLV [V6T] | 2.39 |
| YLDPSCLSGVSCFVMFLCLADYLV [V6C] | 3.38 |

| Variant | protein stability index |
| --- | --- |
| YLDPSDLSGVSCFVMFLCLADYLV [V6D] | 2.36 |
| YLDPSNLSGVSCFVMFLCLADYLV [V6N] | 3.08 |
| YLDPSYLSGVSCFVMFLCLADYLV [V6Y] | 2.66 |
| YLDPSALSGVSCFVMFLCLADYLV [V6A] | 1.44 |
| YLDPSKLSGVSCFVMFLCLADYLV [V6K] | 2.51 |
| YLDPSILSGVSCFVMFLCLADYLV [V6I] | 3.23 |
| YLDPSRLSGVSCFVMFLCLADYLV [V6R] | 2.76 |
| YADPSVLSGVSCFVMFLCLADYLV [L2A] | 2.29 |
| YEDPSVLSGVSCFVMFLCLADYLV [L2E] | 3.04 |
| YYDPSVLSGVSCFVMFLCLADYLV [L2Y] | 2.35 |
| YIDPSVLSGVSCFVMFLCLADYLV [L2I] | 1.63 |
| YTDPSVLSGVSCFVMFLCLADYLV [L2T] | 3.75 |
| YKDPSVLSGVSCFVMFLCLADYLV [L2K] | 3.31 |
| YPDPSVLSGVSCFVMFLCLADYLV [L2P] | 2.76 |
| YHDPSVLSGVSCFVMFLCLADYLV [L2H] | 2.67 |
| YFDPSVLSGVSCFVMFLCLADYLV [L2F] | 3 |
| YNDPSVLSGVSCFVMFLCLADYLV [L2N] | 2.5 |
| YCDPSVLSGVSCFVMFLCLADYLV [L2C] | 2.99 |
| YRDPSVLSGVSCFVMFLCLADYLV [L2R] | 2.5 |
| YQDPSVLSGVSCFVMFLCLADYLV [L2Q] | 2.09 |
| YDDPSVLSGVSCFVMFLCLADYLV [L2D] | 3.95 |
| YLSPSVLSGVSCFVMFLCLADYLV [D3S] | 2.72 |
| YLPPSVLSGVSCFVMFLCLADYLV [D3P] | 3.06 |
| YLEPSVLSGVSCFVMFLCLADYLV [D3E] | 1.94 |
| YLQPSVLSGVSCFVMFLCLADYLV [D3Q] | 3.57 |
| YLVPSVLSGVSCFVMFLCLADYLV [D3V] | 2.91 |

| Variant | protein stability index |
| --- | --- |
| YLNPSVLSGVSCFVMFLCLADYLV [D3N] | 3.7 |
| YLYPSVLSGVSCFVMFLCLADYLV [D3Y] | 2.54 |
| YLAPSVLSGVSCFVMFLCLADYLV [D3A] | 5.08 |
| YLHPSVLSGVSCFVMFLCLADYLV [D3H] | 1.69 |
| YLIPSVLSGVSCFVMFLCLADYLV [D3I] | 2.83 |
| YLTPSVLSGVSCFVMFLCLADYLV [D3T] | 2.59 |
| YLRPSVLSGVSCFVMFLCLADYLV [D3R] | 3.64 |
| YLDPHVLSGVSCFVMFLCLADYLV [S5H] | 3.5 |
| YLDPGVLSGVSCFVMFLCLADYLV [S5G] | 3.63 |
| YLDPDVLSGVSCFVMFLCLADYLV [S5D] | 3.07 |
| YLDPIVLSGVSCFVMFLCLADYLV [S5I] | 3.61 |
| YLDPNVLSGVSCFVMFLCLADYLV [S5N] | 2.26 |
| YLDPPVLSGVSCFVMFLCLADYLV [S5P] | 3.19 |
| YLDPKVLSGVSCFVMFLCLADYLV [S5K] | 3.47 |
| YLDPMVLSGVSCFVMFLCLADYLV [S5M] | 3.03 |
| YLDPRVLSGVSCFVMFLCLADYLV [S5R] | 3.56 |
| YLDPLVLSGVSCFVMFLCLADYLV [S5L] | 3.09 |
| YLDKSVLSGVSCFVMFLCLADYLV [P4K] | 2.63 |
| YLDDSVLSGVSCFVMFLCLADYLV [P4D] | 3.12 |
| YLDISVLSGVSCFVMFLCLADYLV [P4I] | 2.66 |
| YLDVSVLSGVSCFVMFLCLADYLV [P4V] | 3.33 |
| YLDNSVLSGVSCFVMFLCLADYLV [P4N] | 2.9 |
| YLDCSVLSGVSCFVMFLCLADYLV [P4C] | 3.21 |
| YLDGSVLSGVSCFVMFLCLADYLV [P4G] | 3.42 |
| YLDMSVLSGVSCFVMFLCLADYLV [P4M] | 3.45 |
| YLDLSVLSGVSCFVMFLCLADYLV [P4L] | 2.76 |

Variants of: B2
Experiment: as above
Conditions: c terminus: a fixed tail appended

| Variant | protein stability index |
| --- | --- |
| KRSWHEHVTHWMGQPFNSDDRNTA [E5H] | 3.56 |
| KRSWWEHVTHWMGQPFNSDDRNTA [E5W] | 3.37 |
| KRSWMEHVTHWMGQPFNSDDRNTA [E5M] | 3.13 |
| KRSWEEHETHWMGQPFNSDDRNTA [V8E] | 4.24 |
| KRSWEEHCTHWMGQPFNSDDRNTA [V8C] | 3.98 |
| KRSWEEHGTHWMGQPFNSDDRNTA [V8G] | 4.02 |
| KRSWEEHVTHWMGSPFNSDDRNTA [Q14S] | 2.37 |
| KRSWEEHVTHWMGFPFNSDDRNTA [Q14F] | 2.65 |
| KRSWEEHVTHWMGEPFNSDDRNTA [Q14E] | 1.71 |
| KRSWEEHVTHWMGQPFNSDDQNTA [R21Q] | 3.07 |
| KRSWEEHVTHWMGQPFNSDDYNTA [R21Y] | 2.55 |
| KRSWENHVTHWMGQPFNSDDRNTA [E6N] | 3.98 |
| KRSWEDHVTHWMGQPFNSDDRNTA [E6D] | 3.06 |
| KRSWEIHVTHWMGQPFNSDDRNTA [E6I] | 2.44 |
| KRSWEMHVTHWMGQPFNSDDRNTA [E6M] | 2.66 |
| KRSWERHVTHWMGQPFNSDDRNTA [E6R] | 3.46 |

— the supplement of paper PMC10567573
